Here are results for one molecule from patent US20100184658A1 (published 2010).

Some targets named below: CLK3 (UniProt P49761 1-490, limits assumed); ABL1 T315I (UniProt P00519 1-1130, limits assumed); GRK4 (UniProt P32298 1-578, limits assumed); PHKG1 (UniProt Q16816 1-387, limits assumed).
Assay in all cases: cell-based or functional assay
The target of assay [1] is PAK4 P21(CDKN1A)-activated kinase 4 (UniProt O96013 1-591, limits assumed).
The target of another assay is T1, PRKCZ (PKC zeta) (human (printed as (h)), UniProt Q05513 1-592, limits assumed).
T1 sequence (looked up): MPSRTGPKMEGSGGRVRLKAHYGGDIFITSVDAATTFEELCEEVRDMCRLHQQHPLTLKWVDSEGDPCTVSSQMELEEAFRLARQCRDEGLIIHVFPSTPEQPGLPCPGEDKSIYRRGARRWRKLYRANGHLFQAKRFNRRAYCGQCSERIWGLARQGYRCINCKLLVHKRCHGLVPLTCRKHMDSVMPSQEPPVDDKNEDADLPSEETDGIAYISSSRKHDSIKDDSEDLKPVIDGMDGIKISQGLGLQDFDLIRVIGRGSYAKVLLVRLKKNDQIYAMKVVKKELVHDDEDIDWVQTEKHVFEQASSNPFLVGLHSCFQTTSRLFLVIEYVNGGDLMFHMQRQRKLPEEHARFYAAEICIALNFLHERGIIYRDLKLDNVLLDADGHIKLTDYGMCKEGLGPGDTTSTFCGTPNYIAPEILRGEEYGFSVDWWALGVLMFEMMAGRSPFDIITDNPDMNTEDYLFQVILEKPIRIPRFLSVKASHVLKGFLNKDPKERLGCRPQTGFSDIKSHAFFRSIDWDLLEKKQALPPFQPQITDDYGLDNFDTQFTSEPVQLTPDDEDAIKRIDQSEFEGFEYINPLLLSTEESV

Assay [2] has as its target MINK1 Misshapen-like kinase 1 (UniProt Q8N4C8 1-320, limits assumed).
Assay [3] deals with BRAF V-raf murine sarcoma viral oncogene homolog B1 (UniProt P15056 416-766, limits assumed).
The target in another assay is T2, PRKX (UniProt P51817 1-358, limits assumed).
T2 sequence (looked up): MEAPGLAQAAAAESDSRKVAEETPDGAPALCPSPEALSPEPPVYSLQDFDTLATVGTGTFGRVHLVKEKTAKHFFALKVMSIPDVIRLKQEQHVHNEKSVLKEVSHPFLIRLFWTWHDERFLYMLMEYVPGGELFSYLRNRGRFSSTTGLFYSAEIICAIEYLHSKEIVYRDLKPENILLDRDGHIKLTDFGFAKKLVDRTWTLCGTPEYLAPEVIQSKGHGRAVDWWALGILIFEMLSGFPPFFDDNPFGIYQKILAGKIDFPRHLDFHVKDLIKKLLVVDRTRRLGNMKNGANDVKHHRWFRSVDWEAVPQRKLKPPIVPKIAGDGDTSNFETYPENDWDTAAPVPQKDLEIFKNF

The target of assay [4] is T3, TAOK2 (TAO1) TAO kinase 2 (UniProt Q9UL54 1-314, limits assumed).
T3 sequence (looked up): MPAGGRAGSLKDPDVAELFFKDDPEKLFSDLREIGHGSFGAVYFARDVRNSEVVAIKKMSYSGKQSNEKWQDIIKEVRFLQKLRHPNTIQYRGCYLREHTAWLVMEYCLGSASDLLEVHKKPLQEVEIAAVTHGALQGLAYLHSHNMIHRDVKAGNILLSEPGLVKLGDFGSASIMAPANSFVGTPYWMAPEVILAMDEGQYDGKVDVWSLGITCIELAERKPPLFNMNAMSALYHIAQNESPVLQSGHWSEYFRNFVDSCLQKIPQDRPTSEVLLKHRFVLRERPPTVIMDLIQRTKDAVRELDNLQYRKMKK

For assay [5], the target named is T4, MAP4K2 (GCK) Mitogen-activated protein kinase kinase kinase kinase 2 (UniProt Q12851 1-820, limits assumed).
T4 sequence (looked up): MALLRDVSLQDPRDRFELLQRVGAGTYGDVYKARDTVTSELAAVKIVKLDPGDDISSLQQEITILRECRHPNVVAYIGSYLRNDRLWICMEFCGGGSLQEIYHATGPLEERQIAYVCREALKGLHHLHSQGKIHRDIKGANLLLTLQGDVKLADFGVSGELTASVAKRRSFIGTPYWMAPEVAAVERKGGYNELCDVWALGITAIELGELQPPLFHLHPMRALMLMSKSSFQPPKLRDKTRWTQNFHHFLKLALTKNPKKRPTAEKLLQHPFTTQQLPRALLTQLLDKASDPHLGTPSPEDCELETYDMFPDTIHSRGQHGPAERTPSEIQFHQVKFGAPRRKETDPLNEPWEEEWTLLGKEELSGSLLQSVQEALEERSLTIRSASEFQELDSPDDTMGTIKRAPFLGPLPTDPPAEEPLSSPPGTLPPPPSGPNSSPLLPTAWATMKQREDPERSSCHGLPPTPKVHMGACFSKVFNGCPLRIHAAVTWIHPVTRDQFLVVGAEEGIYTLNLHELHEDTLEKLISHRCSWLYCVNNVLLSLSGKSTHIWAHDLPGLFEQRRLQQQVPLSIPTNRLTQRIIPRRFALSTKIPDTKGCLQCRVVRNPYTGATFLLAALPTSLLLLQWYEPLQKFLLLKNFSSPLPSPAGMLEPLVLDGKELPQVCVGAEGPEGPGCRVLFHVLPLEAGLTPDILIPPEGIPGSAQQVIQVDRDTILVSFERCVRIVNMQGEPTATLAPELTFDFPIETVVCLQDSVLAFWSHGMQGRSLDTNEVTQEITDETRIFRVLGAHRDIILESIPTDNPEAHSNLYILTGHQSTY

The target of assay [6] is CAMK1D (CaMKI delta) Calcium/calmodulin-dependent protein kinase I delta (UniProt Q8IU85 1-385, limits assumed).
Assay [7] addresses NEK6 NIMA (never in mitosis gene a)-related kinase 6 (UniProt Q9HC98 1-313, limits assumed).
The target of assay [8] is MAPK14 (p38 alpha) Mitogen-activated protein kinase 14 (UniProt Q16539 1-360).
Sequence of MAPK14 (p38 alpha) Mitogen-activated protein kinase 14 (Q16539 whole entry): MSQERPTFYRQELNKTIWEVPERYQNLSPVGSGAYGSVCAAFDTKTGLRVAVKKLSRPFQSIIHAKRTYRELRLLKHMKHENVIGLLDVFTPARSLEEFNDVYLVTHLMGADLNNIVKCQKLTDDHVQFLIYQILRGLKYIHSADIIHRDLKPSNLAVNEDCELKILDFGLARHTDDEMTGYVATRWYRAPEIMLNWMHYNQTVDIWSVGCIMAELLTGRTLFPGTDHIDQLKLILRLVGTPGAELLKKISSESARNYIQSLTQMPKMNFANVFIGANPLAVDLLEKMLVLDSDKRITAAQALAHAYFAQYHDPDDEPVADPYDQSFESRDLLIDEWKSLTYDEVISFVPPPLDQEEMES

Sequence of PAK4 P21(CDKN1A)-activated kinase 4 (O96013 whole entry): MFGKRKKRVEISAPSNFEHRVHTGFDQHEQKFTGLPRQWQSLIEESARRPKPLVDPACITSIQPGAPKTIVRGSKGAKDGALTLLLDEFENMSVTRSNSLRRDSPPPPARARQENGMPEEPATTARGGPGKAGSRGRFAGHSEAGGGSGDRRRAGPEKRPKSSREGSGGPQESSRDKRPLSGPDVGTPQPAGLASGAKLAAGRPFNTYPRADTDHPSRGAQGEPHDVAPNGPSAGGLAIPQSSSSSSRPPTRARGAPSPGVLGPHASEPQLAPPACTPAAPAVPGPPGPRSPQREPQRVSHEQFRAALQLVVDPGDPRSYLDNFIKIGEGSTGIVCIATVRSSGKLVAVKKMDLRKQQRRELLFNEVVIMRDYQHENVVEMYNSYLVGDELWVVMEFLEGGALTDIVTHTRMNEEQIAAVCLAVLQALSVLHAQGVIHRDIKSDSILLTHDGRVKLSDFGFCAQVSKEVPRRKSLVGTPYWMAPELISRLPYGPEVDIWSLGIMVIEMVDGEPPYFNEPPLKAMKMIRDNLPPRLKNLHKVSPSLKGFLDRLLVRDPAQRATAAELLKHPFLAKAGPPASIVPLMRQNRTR
Sequence of NEK6 NIMA (never in mitosis gene a)-related kinase 6 (Q9HC98 whole entry): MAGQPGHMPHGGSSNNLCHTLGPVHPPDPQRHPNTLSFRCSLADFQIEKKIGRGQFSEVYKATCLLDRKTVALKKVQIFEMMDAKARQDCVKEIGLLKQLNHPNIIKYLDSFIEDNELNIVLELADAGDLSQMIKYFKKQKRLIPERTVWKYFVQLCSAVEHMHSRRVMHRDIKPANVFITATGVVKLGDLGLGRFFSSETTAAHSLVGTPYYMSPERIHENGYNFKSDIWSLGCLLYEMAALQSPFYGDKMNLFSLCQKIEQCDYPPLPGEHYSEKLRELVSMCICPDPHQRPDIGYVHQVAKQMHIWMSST
Sequence of BRAF V-raf murine sarcoma viral oncogene homolog B1 (P15056 416-766 limits assumed): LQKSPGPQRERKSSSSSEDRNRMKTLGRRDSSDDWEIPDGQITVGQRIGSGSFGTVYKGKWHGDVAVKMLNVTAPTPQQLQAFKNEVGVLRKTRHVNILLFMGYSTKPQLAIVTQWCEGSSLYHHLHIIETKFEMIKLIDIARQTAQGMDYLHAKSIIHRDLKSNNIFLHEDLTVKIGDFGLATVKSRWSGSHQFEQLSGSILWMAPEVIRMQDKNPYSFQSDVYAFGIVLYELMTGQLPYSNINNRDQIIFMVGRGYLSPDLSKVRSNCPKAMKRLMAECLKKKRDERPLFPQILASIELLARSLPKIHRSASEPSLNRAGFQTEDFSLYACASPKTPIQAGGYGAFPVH
Sequence of MINK1 Misshapen-like kinase 1 (Q8N4C8 1-320 limits assumed): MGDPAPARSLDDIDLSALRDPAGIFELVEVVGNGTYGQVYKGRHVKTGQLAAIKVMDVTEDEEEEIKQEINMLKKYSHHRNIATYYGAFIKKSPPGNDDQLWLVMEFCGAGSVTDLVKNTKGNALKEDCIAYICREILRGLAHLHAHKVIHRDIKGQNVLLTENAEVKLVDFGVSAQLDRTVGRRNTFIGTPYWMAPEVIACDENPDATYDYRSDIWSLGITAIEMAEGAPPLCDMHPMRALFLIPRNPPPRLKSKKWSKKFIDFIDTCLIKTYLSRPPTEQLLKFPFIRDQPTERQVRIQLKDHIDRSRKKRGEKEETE
Sequence of CLK3 (P49761 whole entry): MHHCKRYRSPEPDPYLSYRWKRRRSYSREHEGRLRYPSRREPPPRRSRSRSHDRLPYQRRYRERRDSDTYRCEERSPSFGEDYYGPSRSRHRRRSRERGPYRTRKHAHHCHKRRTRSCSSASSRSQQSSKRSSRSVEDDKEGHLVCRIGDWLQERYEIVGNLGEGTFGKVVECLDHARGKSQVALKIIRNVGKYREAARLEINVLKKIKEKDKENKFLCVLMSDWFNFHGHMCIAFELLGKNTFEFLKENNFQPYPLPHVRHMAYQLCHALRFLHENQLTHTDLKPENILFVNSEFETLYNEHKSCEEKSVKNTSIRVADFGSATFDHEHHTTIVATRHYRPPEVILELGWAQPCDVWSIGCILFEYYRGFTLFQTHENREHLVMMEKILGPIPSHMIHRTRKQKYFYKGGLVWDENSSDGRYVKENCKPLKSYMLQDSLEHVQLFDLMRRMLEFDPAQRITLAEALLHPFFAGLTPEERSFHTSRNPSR
Sequence of CAMK1D (CaMKI delta) Calcium/calmodulin-dependent protein kinase I delta (Q8IU85 whole entry, stated change not applied): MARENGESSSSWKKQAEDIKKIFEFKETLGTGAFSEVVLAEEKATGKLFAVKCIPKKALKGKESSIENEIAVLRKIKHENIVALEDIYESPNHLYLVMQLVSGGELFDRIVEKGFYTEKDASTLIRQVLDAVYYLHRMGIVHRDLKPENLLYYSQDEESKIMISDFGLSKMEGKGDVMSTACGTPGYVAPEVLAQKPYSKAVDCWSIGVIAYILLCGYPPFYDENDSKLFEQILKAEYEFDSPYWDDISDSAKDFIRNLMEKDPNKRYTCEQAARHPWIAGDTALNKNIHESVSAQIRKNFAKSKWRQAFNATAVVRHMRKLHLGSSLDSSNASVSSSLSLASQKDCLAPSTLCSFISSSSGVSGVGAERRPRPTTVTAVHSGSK
Sequence of PHKG1 (Q16816 whole entry): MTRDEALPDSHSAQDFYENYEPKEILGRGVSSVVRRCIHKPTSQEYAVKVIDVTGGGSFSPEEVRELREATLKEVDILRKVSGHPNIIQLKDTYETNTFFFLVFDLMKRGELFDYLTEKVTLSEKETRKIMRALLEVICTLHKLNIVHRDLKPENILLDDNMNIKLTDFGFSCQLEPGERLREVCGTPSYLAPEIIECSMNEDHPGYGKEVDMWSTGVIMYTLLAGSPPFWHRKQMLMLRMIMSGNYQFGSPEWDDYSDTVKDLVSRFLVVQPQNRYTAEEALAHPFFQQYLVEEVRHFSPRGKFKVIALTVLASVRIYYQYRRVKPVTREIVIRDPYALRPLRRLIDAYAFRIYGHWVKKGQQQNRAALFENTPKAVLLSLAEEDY
Sequence of ABL1 T315I (P00519 whole entry T315I): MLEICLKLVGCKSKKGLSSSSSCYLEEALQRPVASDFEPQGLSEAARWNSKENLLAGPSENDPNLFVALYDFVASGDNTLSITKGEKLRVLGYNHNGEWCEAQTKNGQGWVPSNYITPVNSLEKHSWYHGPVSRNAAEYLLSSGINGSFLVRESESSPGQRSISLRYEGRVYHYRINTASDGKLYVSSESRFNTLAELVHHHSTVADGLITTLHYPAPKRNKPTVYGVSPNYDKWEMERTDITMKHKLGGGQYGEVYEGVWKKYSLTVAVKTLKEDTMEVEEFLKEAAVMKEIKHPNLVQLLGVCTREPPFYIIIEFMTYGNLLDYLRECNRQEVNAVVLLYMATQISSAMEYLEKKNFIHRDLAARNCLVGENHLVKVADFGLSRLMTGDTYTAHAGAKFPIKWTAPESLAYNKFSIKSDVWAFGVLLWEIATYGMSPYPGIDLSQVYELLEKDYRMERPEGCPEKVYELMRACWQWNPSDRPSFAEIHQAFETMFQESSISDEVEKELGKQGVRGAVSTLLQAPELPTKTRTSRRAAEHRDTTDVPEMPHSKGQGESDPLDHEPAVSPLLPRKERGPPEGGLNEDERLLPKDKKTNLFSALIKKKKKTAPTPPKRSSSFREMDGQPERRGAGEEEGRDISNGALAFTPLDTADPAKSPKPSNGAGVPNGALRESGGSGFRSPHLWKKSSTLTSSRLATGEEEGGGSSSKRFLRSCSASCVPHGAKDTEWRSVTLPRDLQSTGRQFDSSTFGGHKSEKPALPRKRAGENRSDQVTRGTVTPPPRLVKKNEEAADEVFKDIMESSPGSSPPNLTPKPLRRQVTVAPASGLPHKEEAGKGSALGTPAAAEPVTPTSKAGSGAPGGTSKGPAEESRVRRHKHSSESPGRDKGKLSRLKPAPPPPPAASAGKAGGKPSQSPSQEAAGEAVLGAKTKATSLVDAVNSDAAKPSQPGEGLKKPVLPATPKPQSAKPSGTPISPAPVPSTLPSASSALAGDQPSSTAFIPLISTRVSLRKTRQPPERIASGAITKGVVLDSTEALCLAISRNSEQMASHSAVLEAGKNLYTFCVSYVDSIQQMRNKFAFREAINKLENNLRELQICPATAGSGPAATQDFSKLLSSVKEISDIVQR
Sequence of GRK4 (P32298 whole entry): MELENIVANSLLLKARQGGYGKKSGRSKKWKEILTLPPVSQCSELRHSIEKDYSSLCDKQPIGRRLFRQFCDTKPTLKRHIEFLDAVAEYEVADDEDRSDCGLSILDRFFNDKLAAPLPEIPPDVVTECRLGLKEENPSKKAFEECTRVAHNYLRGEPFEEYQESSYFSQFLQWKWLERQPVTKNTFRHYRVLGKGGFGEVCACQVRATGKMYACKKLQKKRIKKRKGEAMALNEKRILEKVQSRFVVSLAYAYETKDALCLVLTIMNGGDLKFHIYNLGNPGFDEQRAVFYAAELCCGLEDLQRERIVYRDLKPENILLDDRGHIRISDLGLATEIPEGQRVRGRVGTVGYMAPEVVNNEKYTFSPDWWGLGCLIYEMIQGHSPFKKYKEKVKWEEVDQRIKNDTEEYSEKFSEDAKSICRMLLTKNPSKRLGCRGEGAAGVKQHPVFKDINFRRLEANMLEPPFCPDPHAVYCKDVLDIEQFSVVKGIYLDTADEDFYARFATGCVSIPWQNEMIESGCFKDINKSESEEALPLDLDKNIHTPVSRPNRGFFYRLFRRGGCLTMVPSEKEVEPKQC

B1: D3 peptide (peptide)
peptide: SGRPPMIVWFNRPFLIAVSHTHGQTILFMAKVINPVGA
For the molecule B1, the “% Inhibition mean” value in assay [1] was determined as 47%; with CLK3, 46%; with PRKCZ (PKC zeta), 74.4%; in assay [2] it was 101%; in assay [3], 100%; with PRKX, 100%. The “% Inhibition mean” value turned out to be 100% in [4]; 98.4% in assay [5]; 98% in [6]; 97.4% in assay [7]; 83% in assay [8]; 69.8% in the assay with ABL1 T315I. Moreover, the “% Inhibition mean” value in the assay with GRK4 turned out to be 58.6%; with PHKG1, 54.8%.
